Experimental data as given in US20120304318A1, “CANCER DIAGNOSIS AND TREATMENT” (CAMBRIDGE ENTERPRISE LTD, priority 2009, published 2012).

B1: OMD-myc tag: OMD with myc tag in pIRES2-EGFP vector, stably transfected into EJ28 cells (protein, UniProt Q99983 21-421, looked up)
Osteomodulin: QYETYQWDEDYDQEPDDDYQTGFPFRQNVDYGVPFHQYTLGCVSECFCPTNFPSSMYCDNRKLKTIPNIPMHIQQLYLQFNEIEAVTANSFINATHLKEINLSHNKIKSQKIDYGVFAKLPNLLQLHLEHNNLEEFPFPLPKSLERLLLGYNEISKLQTNAMDGLVNLTMLDLCYNYLHDSLLKDKIFAKMEKLMQLNLCSNRLESMPPGLPSSLMYLSLENNSISSIPEKYFDKLPKLHTLRMSHNKLQDIPYNIFNLPNIVELSVGHNKLKQAFYIPRNLEHLYLQNNEIEKMNLTVMCPSIDPLHYHHLTYIRVDQNKLKEPISSYIFFCFPHIHTIYYGEQRSTNGQTIQLKTQVFRRFPDDDDESEDHDDPDNAHESPEQEGAEGHFDLHYYENQE
modifications: myc tag
notes: OMD with myc tag in pIRES2-EGFP vector, stably transfected into EJ28 cells
B2: OMD: human osteomodulin protein (SEQ ID NO:1), stably overexpressed in cells from an expression plasmid (protein, listed as Homo sapiens)
chain: MGFLSPIYVIFFFFGVKVHCQYETYQWDEDYDQEPDDDYQTGFPFRQNVDYGVPFHQYTLGCVSECFCPTNFPSSMYCDNRKLKTIPNIPMHIQQLYLQFNEIEAVTANSFINATHLKEINLSHNKIKSQKIDYGVFAKLPNLLQLHLEHNNLEEFPFPLPKSLERLLLGYNEISKLQTNAMDGLVNLTMLDLCYNYLHDSLLKDKIFAKMEKLMQLNLCSNRLESMPPGLPSSLMYLSLENNSISSIPEKYFDKLPKLHTLRMSHNKLQDIPYNIFNLPNIVELSVGHNKLKQAFYIPRNLEHLYLQNNEIEKMNLTVMCPSIDPLHYHHLTYIRVDQNKLKEPISSYIFFCFPHIHTIYYGEQRSTNGQTIQLKTQVFRRFPDDDDESEDHDDPDNAHESPEQEGAEGHFDLHYYENQE
B3: PRELP: human PRELP protein (SEQ ID NO:2), stably overexpressed in cells (myc tagged in EJ28) (protein)
chain: QPTRRPRPGTGPGRRPRPRPRPTPSFPQPDEPAEPTDLPPPLPPGPPSIFPDCPRECYCPPDFPSALYCDSRNLRKVPVIPPRIHYLYLQNNFITELPVESFQNATGLRWINLDNNRIRKIDQRVLEKLPGLVFLYMEKNQLEEVPSALPRNLEQLRLSQNHISRIPPGVFSKLENLLLLDLQHNRLSDGVFKPDTFHGLKNLMQLNLAHNILRKMPPRVPTAIHQLYLDSNKIETIPNGYFKSFPNLAFIRLNYNKLTDRGLPKNSFNISNLLVLHLSHNRISSVPAINNRLEHLYLNNNSIEKINGTQICPNDLVAFHDFSSDLENVPHLRYLRLDGNYLKPPIPLDLMMCFRLLQSVVI

What was measured:
[1] = system: EJ28 cells; test: Apoptosis of stably transfected EJ28 cells with or without Mitomycin C (caspase activity); type: cell-based; settings: for endogenous apoptosis: stable overexpression in EJ28, no drug; for apoptosis induced by Mitomycin C: stable overexpression in EJ28, 1 μg/ml Mitomycin C, caspase activity
Procedure: Two control EJ28 cells, two OMD stably-transfected EJ28 cells, and a PRELP stably-transfected EJ28 cells are treated with 1 μg/ml of Mitomycin C. Also, as a positive control, EJ28 cells are treated with higher concentration 5 μg/ml of Mitomycin C as a positive control. Then, the ratios of apoptotic cells were determined by measuring caspase activities.
(§1) OMD and PRELP were subcloned into pIRES2-EGFP (Clontech). A bladder cancer cell line, EJ28, was stably transfected with these plasmids by selection with G418. Two independent clones were derived for each plasmid (except MT-Prelp, where it was only possible to derive one). Then, the properties of these cells were examined. […] These cells include apoptotic ones. This contrasted with control cells, which were flat and cuboidal. […] Two independent clones of OMD and EGFP expressing EJ28 cells, two independent control EJ28 clones expressing EGFP, and a PRELP with myc tag and EGFP expressing EJ28 cells were treated with 1 μg/ml Mitomycin C. Also, EGFP expressing EJ28 cells were treated with higher concentration of Mitomycin C (5 μg/ml) as a positive control.

[2] = system: EJ28 bladder cancer cells; test: EJ28 xenograft in nude mice, tumour volume; type: in vivo, MF1 nude mice; settings: day 18
Procedure: To evaluate in vivo effect of OMD or PRELP activation in cancer cells, xenograft experiments were performed using nude mice. EJ28 bladder cancer cells expressing OMD or EJ28 control cells were injected into the mice and cancer development was monitored for three weeks. […] This observation confirms the utility of OMD/PRELP based cancer treatment.
FIG. 15 Effect of xenograft of EJ28 cells overexpressing OMD protein. EJ28 bladder cancer cells or EJ28 cells overexpressing OMD were inoculated into nude mice and then cancer development was monitored for three weeks. The result at 18 days is shown.
Six- to eight-week-old male MF1 nude mice were obtained from Royal Free Hospital London UK. Tumors were induced by inoculation of 5×10^6 EJ28 cancer bladder cells s.c. on the back. EJ28 tumour-bearing MF-1 mice (n=5) were injected with cells subcloned with stably transfected with OMD-myc tag in pIRES2-EGFP vector, using Lipofectamine 2000 (Invitrogen). […] Tumour dimensions were measured continuously using a caliper and tumour volumes were calculated using the equation: volume=(π/6)×a×b×c, where a, b, and c represent three orthogonal axes of the tumour. Animals were assessed for tumour growth over 25-day period.
The biological activity of OMD on EJ28 tumour-bearing mice was determined by measuring changes in tumour volume.

[3] = system: EJ28 bladder cancer cell line; test: Proliferation and cell cycle of stably transfected EJ28 cells (cell counting, BrdU incorporation, FACS); type: cell-based
Description: Also disclosed herein are novel methods for treatment of cancer based on activation of OMD and/or PRELP. […] If so, it can be inferred that the activation of OMD or/and PRELP would inhibit tumourigenesis and provide novel treatment of cancer. […] To this end, OMD or PRELP was stably over-expressed in the bladder cancer cell line EJ28.
as §1

[4] = system: EJ28 cells; test: Anchorage-independent growth in soft agar; type: cell-based; settings: stable overexpression in EJ28; 2 weeks; relative to control cells
Procedure: FIG. 14. OMD abolishes, and PRELP inhibits, anchorage-independent growth of EJ28 cells. Cells were seeded in DMEM+0.3% agar, overlying a lower layer of DMEM+0.6% agar. 3000 cells were seeded into wells of a 6-well dish in triplicate. Plates were incubated for 2 weeks, and colonies were counted. Error bars are standard deviations. Statistical analysis consisted of one-way ANOVA, with post-hoc Newman-Keuls testing. Letter groupings, “a”, “b” etc, refer to the results of the Newman-Keuls test.
OMD and PRELP also affect the anchorage-independence, a hallmark of cancer cells. Anchorage-independence was measured by seeding cells in soft agar, incubating them for 2 weeks and counting the number of resultant colonies.

[5] = system: HEK 293 cells; test: Mitomycin C induced apoptosis in normal cells (annexin and caspase activity assays); type: cell-based; settings: stable overexpression in HEK 293; 1 ug/ml mitomycin C, 24 h
Procedure: FIG. 10. OMD expression protects normal cells from apoptosis, whilst PRELP expression has no effect. HEK 293 cells stably transfected with either CAT (a control), OMD or PRELP, and assayed to measure the level of apoptosis they underwent in response to treatment with 1 ug/ml mitomycin C. (a) Annexin assay. Cells were treated one dose of the drug, and 24 hours later, they were trypsinized, incubated in the presence of Alexafluor-647 conjugated annexin and propidium iodide, and examined by flow cytometry. The annexin-positive, PI-negative subpopulation, comprising live cells that were in the process of undergoing apoptosis, was identified. (b) Caspase activity assay. One dose of the drug was administered, and 24 h later, cells were incubated in the presence of a substrate that, upon cleavage by caspases, was converted into a luminescent product. Luminescence was quantified and taken to be proportional to caspase activity. In both (a) and (b), error bars refer to standard deviations, and statistical analysis consisted of t-tests.

[6] = stable overexpression in EJ28 vs control cells

| Molecule | cell death ([1]; EGFP expressing EJ28 cells, 5 μg/ml Mitomycin C, positive control) | tumour size ([2]; EJ28 cells stably transfected with OMD-myc tag inoculated s.c. in MF-1 nude mice, control 37.91±16.57) | tumour growth ([2]; OMD-myc tag transfected EJ28 cell line vs vector control) | cell cycle arrest / inhibition ([3]; stable overexpression in EJ28) | proportion of cells in S-phase (FACS analysis) ([3]; stable overexpression in EJ28) | BrdU incorporation [3, 6] | proliferation (cell-counting assay) [3, 6] | anchorage-independent growth / colony-forming ability in soft agar [4] | endogenous apoptosis [1] | apoptosis induced by Mitomycin C [1] | Mitomycin-C mediated apoptosis of normal cells [5] |
| --- | --- | --- | --- | --- | --- | --- | --- | --- | --- | --- | --- |
| CO[C@@]12[C@H](COC(N)=O)C3=C(C(=O)C(C)=C(N)C3=O)N1C[C@@H]1N[C@@H]12 [Mitomycin C, reference compound] | massive cell death |  |  |  |  |  |  |  |  |  |  |
| B1 |  | 1.60±1.0 mm^3 | completely inhibited |  |  |  |  |  |  |  |  |
| B2 |  |  |  | enhanced cell cycle arrest at G1 phase | lower proportion of cells in S-phase | lower rate of BrdU incorporation | proliferated more slowly than control cells | absolutely abolished | increased cell death by apoptosis | markedly sensitized | protected normal cells |
| B3 |  |  |  | cell cycle inhibition was not observed |  |  | inhibit proliferation | a third | higher rates of endogenous apoptosis | even higher rates of apoptosis | had no effect |
